In article doi:10.1101/2022.06.04.494841:
Several values for one entry are separate records, joined by “and”; a condition that tells them apart may be missing. Equal values may be shown once.

Molecular target: MoFe-protein (molybdenum iron protein of the MoFe-nitrogenase) from Azotobacter vinelandii (Azotobacter vinelandii) (UniProt P07328)
Experiment: cryo-EM structure

UniProt P07328, sequence (P07328 whole entry, chain 1 of 2): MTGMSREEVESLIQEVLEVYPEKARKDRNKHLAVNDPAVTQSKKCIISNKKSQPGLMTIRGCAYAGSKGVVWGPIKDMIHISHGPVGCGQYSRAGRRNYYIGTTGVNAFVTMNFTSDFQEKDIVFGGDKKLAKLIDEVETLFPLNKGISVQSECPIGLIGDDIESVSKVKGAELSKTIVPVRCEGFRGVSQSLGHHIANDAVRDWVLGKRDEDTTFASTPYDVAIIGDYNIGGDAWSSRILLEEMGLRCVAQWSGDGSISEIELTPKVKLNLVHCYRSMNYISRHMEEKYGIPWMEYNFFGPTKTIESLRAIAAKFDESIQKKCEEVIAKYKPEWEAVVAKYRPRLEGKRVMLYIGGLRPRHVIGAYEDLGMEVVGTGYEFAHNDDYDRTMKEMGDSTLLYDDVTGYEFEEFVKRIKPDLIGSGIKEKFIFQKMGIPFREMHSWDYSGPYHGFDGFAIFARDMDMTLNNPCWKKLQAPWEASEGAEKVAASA
UniProt P07328, sequence (P07329 whole entry, chain 2 of 2, further chain): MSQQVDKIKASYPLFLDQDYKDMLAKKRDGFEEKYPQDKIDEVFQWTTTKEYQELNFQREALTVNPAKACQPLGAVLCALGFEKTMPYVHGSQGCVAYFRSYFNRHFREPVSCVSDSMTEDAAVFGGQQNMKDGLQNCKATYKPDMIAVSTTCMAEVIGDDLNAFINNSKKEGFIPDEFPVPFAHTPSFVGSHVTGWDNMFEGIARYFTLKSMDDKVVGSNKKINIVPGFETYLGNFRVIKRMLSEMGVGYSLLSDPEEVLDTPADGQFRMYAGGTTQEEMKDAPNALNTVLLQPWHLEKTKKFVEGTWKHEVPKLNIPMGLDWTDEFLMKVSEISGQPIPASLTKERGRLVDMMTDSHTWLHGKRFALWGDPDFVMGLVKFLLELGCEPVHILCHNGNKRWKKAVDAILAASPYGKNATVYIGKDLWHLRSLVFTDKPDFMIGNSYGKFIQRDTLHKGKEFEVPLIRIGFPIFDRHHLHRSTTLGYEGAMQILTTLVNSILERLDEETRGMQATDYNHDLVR

Fe-protein (iron protein of the MoFe-nitrogenase) from Azotobacter vinelandii (enzyme)
stoichiometry N (Fe-protein per MoFe-protein): 2 and 1
